# Measured values from patent US20240116985A1, “STAPLED PEPTIDES AND METHODS THEREOF” (priority 2020, published 2024).
# Starred links: 1 amine or outer side, 2 acyl side, 3 side chain; linkers in the order of their positions; H or OH if unused. Positions of bridges follow the written chain, without caps; N, C: chain ends. Non-standard residues stand in square brackets, D forms with d. Primed or numbered codes have the meaning given here. PyrS2″ = (S)-3-amino-1-((pent-4-en-1-yloxy)carbonyl)pyrrolidine-3-carboxylic acid (stapling residue), C=CCCCOC(=O)N1CC[C@@](N[*:1])(C(=O)[*:2])C1; B5(4) = 2,2-bis(4-pentenyl)glycine = 2-amino-2-(pent-4-en-1-yl)hept-6-enoic acid (stitching residue), C=CCCCC(CCCC=C)(N[*:1])C(=O)[*:2]; B5(5) = 2,2-bis(4-pentenyl)glycine, 2-amino-2-(pent-4-en-1-yl)hept-6-enoic acid (stitching residue), C=CCCCC(CCCC=C)(N[*:1])C(=O)[*:2]; TfeGA = (S)-2-amino-3-((carboxymethyl)(2,2,2-trifluoroethyl)amino)propanoic acid, O=C([C@H](CN(CC(=O)[*:3])CC(F)(F)F)N[*:1])[*:2]; PyrS2 = (S)-3-amino-1-((pent-4-en-1-yloxy)carbonyl)pyrrolidine-3-carboxylic acid, C=CCCCOC(=O)N1CC[C@@](N[*:1])(C(=O)[*:2])C1; B5(22) = 2-amino-2-(pent-4-en-1-yl)hept-6-enoic acid (two alkene side chains), C=CCCCC(CCCC=C)(N[*:1])C(=O)[*:2]; B5 = 2-amino-2-(pent-4-en-1-yl)hept-6-enoic acid, C=CCCCC(CCCC=C)(N[*:1])C(=O)[*:2]; Phe(3-COOH) = N[C@@H](Cc1cccc(C(=O)O)c1)C(=O)O; Phe(2-CF3) = N[C@@H](Cc1ccccc1C(F)(F)F)C(=O)O; Phe(3-Br) = N[C@@H](Cc1cccc(Br)c1)C(=O)O; Bta = N[C@@H](Cc1csc2ccccc12)C(=O)O; αAllylPro = C=CC[C@@]1(C(=O)O)CCCN1; tBuAla = CC(C)(C)C[C@H](N)C(=O)O; 3Thi = N[C@@H](Cc1ccsc1)C(=O)O; hSer = N[C@@H](CCO)C(=O)O
# B1: I-2145 (peptide)
# peptide: Ac-[αAllylPro]D[tBuAla][B5]NTAAFT[PyrS2][3Thi][Bta]F-NH2
# modifications: staple 1-4, 4-11; also: later eluting HPLC isomer
# B2: I-940 (peptide)
# peptide: Ac-[αAllylPro]D[tBuAla][B5(22)]D[TfeGA]AAFN[PyrS2][3Thi][Bta]S-NH2
# modifications: staple 1-4, 4-11; also: staple isomer, earlier eluting HPLC peak
# B3: I-2146 (peptide)
# peptide: Ac-[αAllylPro]D[tBuAla][B5]NTAAFH[PyrS2][3Thi][Bta]Q-NH2
# modifications: staple 1-4, 4-11; also: earlier eluting HPLC isomer
# B4: I-943 (peptide)
# peptide: Ac-[αAllylPro]D[tBuAla][B5(5)]D[TfeGA]AAFN[PyrS2″][3Thi][Bta]T-NH2
# modifications: staple 1-4, 4-11; also: staple isomer composition, later-eluting HPLC peak
# B5: I-945 (peptide)
# peptide: Ac-[αAllylPro]D[tBuAla][B5(5)]D[TfeGA]AAFN[PyrS2″][3Thi][Bta]A-NH2
# modifications: staple 1-4, 4-11; also: staple isomer composition, later-eluting HPLC peak
# B6: I-2144 (peptide)
# peptide: Ac-[αAllylPro]D[tBuAla][B5]NTAAFT[PyrS2][3Thi][Bta]F-NH2
# modifications: staple 1-4, 4-11; also: earlier eluting HPLC isomer
# B7: I-2143 (peptide)
# peptide: Ac-[αAllylPro]D[tBuAla][B5]NTAAFN[PyrS2][3Thi][Bta]A-NH2
# modifications: staple 1-4, 4-11; also: later eluting HPLC isomer
# B8: I-947 (peptide)
# peptide: Ac-[αAllylPro]D[tBuAla][B5(5)]D[TfeGA]AAFN[PyrS2″][3Thi][Bta]L-NH2
# modifications: staple 1-4, 4-11; also: staple isomer composition, later-eluting HPLC peak
# B9: I-942 (peptide)
# peptide: Ac-[αAllylPro]D[tBuAla][B5(5)]D[TfeGA]AAFN[PyrS2″][3Thi][Bta]T-NH2
# modifications: staple 1-4, 4-11; also: staple isomer composition, earlier-eluting HPLC peak
# B10: I-2155 (peptide)
# peptide: Ac-[αAllylPro]D[tBuAla][B5]D[Phe(3-COOH)]AAFL[PyrS2][Phe(3-Br)][Phe(2-CF3)]Q-NH2
# modifications: staple 1-4, 4-11
# B11: I-941 (peptide)
# peptide: Ac-[αAllylPro]D[tBuAla][B5(22)]D[TfeGA]AAFN[PyrS2][3Thi][Bta]S-NH2
# modifications: staple 1-4, 4-11; also: staple isomer composition, later-eluting HPLC peak
# B12: I-2148 (peptide)
# peptide: Ac-[αAllylPro]D[tBuAla][B5]TTAAFN[PyrS2][3Thi][Bta]Q-NH2
# modifications: staple 1-4, 4-11; also: earlier eluting HPLC isomer
# B13: I-2147 (peptide)
# peptide: Ac-[αAllylPro]D[tBuAla][B5]NTAAFH[PyrS2][3Thi][Bta]Q-NH2
# modifications: staple 1-4, 4-11; also: later eluting HPLC isomer
# B14: I-2149 (peptide)
# peptide: Ac-[αAllylPro]D[tBuAla][B5]TTAAFN[PyrS2][3Thi][Bta]Q-NH2
# modifications: staple 1-4, 4-11; also: later eluting HPLC isomer
# B15: I-944 (peptide)
# peptide: Ac-[αAllylPro]D[tBuAla][B5(5)]D[TfeGA]AAFN[PyrS2″][3Thi][Bta]A-NH2
# modifications: staple 1-4, 4-11; also: staple isomer composition, earlier-eluting HPLC peak
# B16: I-950 (peptide)
# peptide: Ac-[αAllylPro]D[tBuAla][B5(4)]D[TfeGA]AAFN[PyrS2″][3Thi][Bta][hSer]-NH2
# modifications: staple 1-4, 4-11; also: earlier-eluting staple isomer composition
# B17: I-2153 (peptide)
# peptide: Ac-[αAllylPro]D[tBuAla][B5]D[Phe(3-COOH)]AAFL[PyrS2][Phe(3-Br)]FQ-NH2
# modifications: staple 1-4, 4-11
# B18: I-946 (peptide)
# peptide: Ac-[αAllylPro]D[tBuAla][B5(5)]D[TfeGA]AAFN[PyrS2″][3Thi][Bta]L-NH2
# modifications: staple 1-4, 4-11; also: staple isomer composition, earlier-eluting HPLC peak
# B19: I-949 (peptide)
# peptide: Ac-[αAllylPro]D[tBuAla][B5(5)]D[TfeGA]AAFN[PyrS2″][3Thi][Bta][dT]-NH2
# modifications: staple 1-4, 4-11; also: staple isomer composition, later-eluting HPLC peak
# B20: I-2140 (peptide)
# peptide: Ac-[αAllylPro]D[tBuAla][B5]NTAAFN[PyrS2][3Thi][Bta]H-NH2
# modifications: staple 1-4, 4-11; also: earlier eluting HPLC isomer
# B21: I-2139 (peptide)
# peptide: Ac-[αAllylPro]D[tBuAla][B5]NTAAFN[PyrS2][3Thi][Bta]W-NH2
# modifications: staple 1-4, 4-11; also: later eluting HPLC isomer
# B22: I-951 (peptide)
# peptide: Ac-[αAllylPro]D[tBuAla][B5]D[TfeGA]AAFN[PyrS2][3Thi][Bta][hSer]-NH2
# modifications: staple 1-4, 4-11; also: later-eluting staple isomer composition
# B23: I-948 (peptide)
# peptide: Ac-[αAllylPro]D[tBuAla][B5(5)]D[TfeGA]AAFN[PyrS2″][3Thi][Bta][dT]-NH2
# modifications: staple 1-4, 4-11; also: staple isomer composition, earlier-eluting HPLC peak
# B24: I-2141 (peptide)
# peptide: Ac-[αAllylPro]D[tBuAla][B5]NTAAFN[PyrS2][3Thi][Bta]H-NH2
# modifications: staple 1-4, 4-11; also: later eluting HPLC isomer
# Molecular target: full-length beta-Catenin (Uniprot ID P35222) (Homo sapiens (Human)) (UniProt P35222)
# Experiment: fluorescence polarization competition; full-length beta-catenin, 5FAM-TCF4(10-53) probe
# Target sequence in this assay (P35222 2-781 limits assumed): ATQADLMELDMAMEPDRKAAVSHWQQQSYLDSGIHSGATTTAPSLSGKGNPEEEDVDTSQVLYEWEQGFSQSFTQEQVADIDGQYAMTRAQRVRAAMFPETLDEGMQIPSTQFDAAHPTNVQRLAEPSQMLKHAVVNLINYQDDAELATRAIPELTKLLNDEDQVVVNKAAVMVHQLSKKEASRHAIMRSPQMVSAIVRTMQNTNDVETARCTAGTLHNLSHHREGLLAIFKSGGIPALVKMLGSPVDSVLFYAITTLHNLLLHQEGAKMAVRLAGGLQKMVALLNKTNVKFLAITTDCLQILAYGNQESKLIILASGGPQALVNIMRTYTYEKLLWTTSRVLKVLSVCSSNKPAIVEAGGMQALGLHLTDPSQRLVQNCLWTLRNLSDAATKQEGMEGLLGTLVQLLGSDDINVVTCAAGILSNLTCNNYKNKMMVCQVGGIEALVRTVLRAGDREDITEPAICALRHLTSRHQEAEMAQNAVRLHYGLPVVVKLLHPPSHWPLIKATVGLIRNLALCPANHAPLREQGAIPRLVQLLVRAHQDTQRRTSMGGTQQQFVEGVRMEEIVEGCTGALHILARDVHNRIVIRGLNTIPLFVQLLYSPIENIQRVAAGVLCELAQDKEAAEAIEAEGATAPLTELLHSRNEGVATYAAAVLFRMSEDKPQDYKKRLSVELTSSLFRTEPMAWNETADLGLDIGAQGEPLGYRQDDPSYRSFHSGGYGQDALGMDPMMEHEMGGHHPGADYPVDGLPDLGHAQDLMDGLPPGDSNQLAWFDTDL
row,Binder,IC50
1,B1,2.07 µM
2,B2,1.74 µM
3,B3,0.248 µM
4,B4,1.99 µM
5,B5,1.08 µM
6,B6,2.02 µM
7,B7,0.217 µM
8,B8,1.05 µM
9,B9,1.28 µM
10,B10,10 µM
11,B11,2.11 µM
12,B12,10 µM
13,B13,0.39 µM
14,B14,7.18 µM
15,B15,0.761 µM
16,B16,1.63 µM
17,B17,1.48 µM
18,B18,0.798 µM
19,B19,2.26 µM
20,B20,0.233 µM
21,B21,0.97 µM
22,B22,1.47 µM
23,B23,2.43 µM
24,B24,0.31 µM

# Molecular target: full-length beta-Catenin (Uniprot ID P35222) (Homo sapiens (Human)) (UniProt P35222)
# Experiment: fluorescence polarization competition; 10 nM full-length beta-catenin + 10 nM 5FAM-TCF4(10-53) probe
# Target sequence in this assay (P35222 whole entry): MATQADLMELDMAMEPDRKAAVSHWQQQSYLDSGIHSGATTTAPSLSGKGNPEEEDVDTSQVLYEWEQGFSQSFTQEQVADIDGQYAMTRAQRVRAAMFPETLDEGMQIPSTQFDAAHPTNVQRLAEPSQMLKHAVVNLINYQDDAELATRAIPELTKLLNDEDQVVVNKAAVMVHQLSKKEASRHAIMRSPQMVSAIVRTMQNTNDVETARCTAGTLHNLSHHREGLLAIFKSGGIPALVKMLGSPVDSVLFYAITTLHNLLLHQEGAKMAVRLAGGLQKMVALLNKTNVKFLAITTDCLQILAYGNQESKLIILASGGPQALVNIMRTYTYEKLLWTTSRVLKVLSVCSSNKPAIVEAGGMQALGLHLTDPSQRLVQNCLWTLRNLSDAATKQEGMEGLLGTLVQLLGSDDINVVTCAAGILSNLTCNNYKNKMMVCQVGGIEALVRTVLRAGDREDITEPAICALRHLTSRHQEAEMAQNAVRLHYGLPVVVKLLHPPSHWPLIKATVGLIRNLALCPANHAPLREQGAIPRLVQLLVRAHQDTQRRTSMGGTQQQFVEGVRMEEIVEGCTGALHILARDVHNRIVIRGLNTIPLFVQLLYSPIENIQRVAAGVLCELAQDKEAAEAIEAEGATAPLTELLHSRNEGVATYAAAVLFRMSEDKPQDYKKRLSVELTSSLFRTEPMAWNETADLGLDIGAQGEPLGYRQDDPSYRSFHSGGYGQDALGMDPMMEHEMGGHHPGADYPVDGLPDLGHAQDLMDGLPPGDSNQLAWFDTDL
row,Binder,EC50
1,B2,1.74 µM
2,B4,1.99 µM
3,B5,1.08 µM
4,B8,1.05 µM
5,B9,1.28 µM
6,B11,2.11 µM
7,B15,0.761 µM
8,B16,1.63 µM
9,B18,0.798 µM
10,B19,2.26 µM
11,B22,1.47 µM
12,B23,2.43 µM
